Molecular target: T1, HLA-A*02:01/PRAME antigen (recombinant, … on HLA-A*02:01) (human, Complex biotinylated for SPR capture; site of biotin and any tag not stated, not in the letters.)
T1 construct: also called PRAME target; pMHC
Test: SPR (Biacore 8K), biotinylated pMHC captured, Fab-scFv analyte, single-cycle kinetics, 1:1 fit
Description: Recombinantly produced hits in Fab-scFv format, as described in Example 4, were evaluated for their ability to bind HLA-A*02:01/PRAME antigen. Binding characterization was performed by surface plasmon resonance (SPR) using a Biacore™ 8k (Cytiva) device. Briefly, 3000 RU of Biotin CAPture reagent (Cytiva) was immobilized on a Series S Sensor Chip CAP (Cytiva) and the biotinylated ligand HLA-A*02:01/PRAME (SEQ ID NO: 68) was diluted in HPS-EP+ running buffer (TEKNOVA) and captured for 300 s at a flow rate of 2 μL/min at flow cell 2 resulting in a ligand capture level of >100 RU. Subsequently, at least three consecutive analyte injections were performed at suitable concentrations applying the single-cycle-kinetics mode at a flow rate of 30 μL/min with an association time of 90 s and the dissociation time set to >400 s. The chip surface was regenerated according to the manufacturer's instructions. After reference flow cell signal and blank injections subtraction, the data was fit to a 1:1 Langmuir binding model to determine the association rate constant kₐ and dissociation rate constant kd and calculate the equilibrium dissociation constant KD (kd/kₐ), also denoted as affinity, using the Biacore™ Insight Evaluation software.

Kd | Binder
1.5 nM | M3286 (bispecific antibody, Humanized variant of M2638, monovalent Fab-scFv) heavy: EVQLVESGGGLVQPGGSLRLSCAASGFTFSTYAMNWVRQAPGKGLEWVGRIRSKYNNYATYYADSVKGRFTISRDDSKNTLYLQMNSLRAEDTAVYYCVRHGNFGDSYVSWFAYWGQGTLVTVSSASTKGPSVFPLAPSSKSTSGGTAALGCLVKDYFPEPVTVSWNSGALTSGVHTFPAVLQSSGLYSLSSVVTVPSSSLGTQTYICNVNHKPSNTKVDKKVEPKSCGGGGSDIQMTQSPSSLSASVGDRVTITCRSSQSVYNNLLGWYQQKPGKAPKLLIYSASTLASGVPSRFSGSGSGTDFTLTISSLQPEDSATYYCQGTYYTGDWYYPFGCGTKVEIKGGGGSGGGGSGGGGSGGGGSQVQLVESGGGSVQPGRSLRLSCAASGFTFSTYGVSWVRQAPGKCLEWIGYIDPVYGSTHYADSVKGRFTISRDNSKNTLYLQMNSLRAEDTASYYCARDLYAGSSGYYMIYSLWGQGTSVTVSS light: QAVVTQEPSLTVSPGGTVTLTCGSSTGAVTTSNYANWVQQKPGKSPRGLIGGTNKRAPGVPARFSGSLLGGKAALTISGAQPEDEADYYCALWYSNHWVFGGGTKLTVLGQPKAAPSVTLFPPSSEELQANKATLVCLISDFYPGAVTVAWKADSSPVKAGVETTTPSKQSNNKYAASSYLSLTPEQWKSHRSYSCQVTHEGSTVEKTVAPTECS
0.05 nM | M3293 (bispecific antibody, Humanized variant of M2638, monovalent Fab-scFv) heavy: EVQLVESGGGLVQPGGSLRLSCAASGFTFSTYAMNWVRQAPGKGLEWVGRIRSKYNNYATYYADSVKGRFTISRDDSKNTLYLQMNSLRAEDTAVYYCVRHGNFGDSYVSWFAYWGQGTLVTVSSASTKGPSVFPLAPSSKSTSGGTAALGCLVKDYFPEPVTVSWNSGALTSGVHTFPAVLQSSGLYSLSSVVTVPSSSLGTQTYICNVNHKPSNTKVDKKVEPKSCGGGGSDIQMTQSPSSLSASVGDRVTITCRSSQSVYNNLLGWYQQKPGKAPKLLIYSASTRASGVPSRFSGSGSGTDFTLTISSLQPEDSATYYCQGTYYTGDWYYPFGCGTKVEIKGGGGSGGGGSGGGGSGGGGSQVQLVESGGGSVQPGRSLRLSCAASGFDFSTYGVSWVRQAPGKCLEWIGYIDPVYGSTHYADSVKGRFTISRDNSKNTLYLQMNSLRAEDTASYYCVRDLYAGSSGYYMIYSLWGQGTSVTVSS light: QAVVTQEPSLTVSPGGTVTLTCGSSTGAVTTSNYANWVQQKPGKSPRGLIGGTNKRAPGVPARFSGSLLGGKAALTISGAQPEDEADYYCALWYSNHWVFGGGTKLTVLGQPKAAPSVTLFPPSSEELQANKATLVCLISDFYPGAVTVAWKADSSPVKAGVETTTPSKQSNNKYAASSYLSLTPEQWKSHRSYSCQVTHEGSTVEKTVAPTECS
